“And” between values parts separate entries of the source, which are not always exact repeats. Identical values can stand only once.
Columns and labels:
[1] = molecular target: PEG Variants of SEQ ID NO 22 (PEGylated Cysteine variants of fibrin domain fusion form of SK)
[2] = molecular target: T1, PEGylated SK L260C (SEQ ID NO 50)
T1 chain: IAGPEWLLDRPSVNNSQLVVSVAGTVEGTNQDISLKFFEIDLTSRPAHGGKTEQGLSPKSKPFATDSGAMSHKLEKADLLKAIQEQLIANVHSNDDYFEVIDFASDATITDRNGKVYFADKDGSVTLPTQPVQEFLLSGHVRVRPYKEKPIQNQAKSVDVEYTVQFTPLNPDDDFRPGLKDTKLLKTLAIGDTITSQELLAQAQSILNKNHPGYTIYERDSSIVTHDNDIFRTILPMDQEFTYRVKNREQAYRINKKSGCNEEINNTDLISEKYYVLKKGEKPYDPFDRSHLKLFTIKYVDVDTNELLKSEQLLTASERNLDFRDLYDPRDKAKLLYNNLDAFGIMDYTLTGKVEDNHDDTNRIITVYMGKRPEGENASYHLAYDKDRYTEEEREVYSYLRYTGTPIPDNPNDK

[3] = molecular target: T2, PEGylated SK K121C (SEQ ID NO 35)
T2 chain: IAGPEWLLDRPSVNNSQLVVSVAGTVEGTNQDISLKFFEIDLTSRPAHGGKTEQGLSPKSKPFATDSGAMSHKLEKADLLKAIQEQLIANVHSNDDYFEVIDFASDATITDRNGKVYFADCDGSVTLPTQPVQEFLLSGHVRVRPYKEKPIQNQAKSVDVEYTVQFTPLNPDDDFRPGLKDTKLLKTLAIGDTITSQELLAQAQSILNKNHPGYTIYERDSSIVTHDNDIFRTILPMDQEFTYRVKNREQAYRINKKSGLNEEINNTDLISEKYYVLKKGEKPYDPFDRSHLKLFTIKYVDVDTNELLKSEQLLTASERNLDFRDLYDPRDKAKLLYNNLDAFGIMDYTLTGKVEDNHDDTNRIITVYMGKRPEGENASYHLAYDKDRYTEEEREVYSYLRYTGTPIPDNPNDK

[4] = molecular target: T3, PEGylated SK C-Cys (SEQ ID NO 490), Cys at C + 1 position in SK
T3 chain: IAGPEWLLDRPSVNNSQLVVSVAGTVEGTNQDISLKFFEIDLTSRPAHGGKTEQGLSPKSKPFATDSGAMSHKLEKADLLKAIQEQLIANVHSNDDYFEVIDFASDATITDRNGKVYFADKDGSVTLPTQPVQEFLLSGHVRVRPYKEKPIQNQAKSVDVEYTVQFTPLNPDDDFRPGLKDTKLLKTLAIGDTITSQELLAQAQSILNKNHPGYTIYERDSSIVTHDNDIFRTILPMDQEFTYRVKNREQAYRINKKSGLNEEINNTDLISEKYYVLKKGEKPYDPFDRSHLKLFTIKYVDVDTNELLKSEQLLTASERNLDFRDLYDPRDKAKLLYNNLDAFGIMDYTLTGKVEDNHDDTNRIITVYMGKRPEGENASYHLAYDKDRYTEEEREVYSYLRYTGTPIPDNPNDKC

[5] = molecular target: T4, bi-pegylated NC 1-383 (SEQ ID NO 493), Cys at N - 1 and at C + 1 position in SK (1-383, G3)
T4 chain: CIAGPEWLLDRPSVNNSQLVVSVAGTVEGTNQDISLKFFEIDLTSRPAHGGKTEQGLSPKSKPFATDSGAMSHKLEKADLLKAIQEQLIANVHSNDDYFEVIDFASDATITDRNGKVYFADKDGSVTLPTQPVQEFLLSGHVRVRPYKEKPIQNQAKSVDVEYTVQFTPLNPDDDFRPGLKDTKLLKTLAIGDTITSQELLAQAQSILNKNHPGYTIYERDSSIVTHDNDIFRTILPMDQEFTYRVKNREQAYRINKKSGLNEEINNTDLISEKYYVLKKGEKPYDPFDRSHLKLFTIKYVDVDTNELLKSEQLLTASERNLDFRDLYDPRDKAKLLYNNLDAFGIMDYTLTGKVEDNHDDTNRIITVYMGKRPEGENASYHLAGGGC

[6] = molecular target: T5, PEGylated SK C-383 Cys (SEQ ID NO 492), Cys at C + 1 position of SK 1-383, G3
T5 chain: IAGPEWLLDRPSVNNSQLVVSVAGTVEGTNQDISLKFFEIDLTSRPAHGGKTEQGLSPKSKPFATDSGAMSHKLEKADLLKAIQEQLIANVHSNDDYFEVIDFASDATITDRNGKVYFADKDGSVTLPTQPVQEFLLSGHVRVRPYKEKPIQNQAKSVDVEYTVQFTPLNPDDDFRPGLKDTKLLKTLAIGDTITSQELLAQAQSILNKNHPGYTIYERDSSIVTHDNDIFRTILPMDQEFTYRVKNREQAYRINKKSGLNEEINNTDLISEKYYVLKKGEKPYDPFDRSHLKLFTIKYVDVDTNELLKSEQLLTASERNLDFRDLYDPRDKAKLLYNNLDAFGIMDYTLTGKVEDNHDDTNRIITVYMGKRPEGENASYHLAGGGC

[7] = molecular target: T6, PEGylated SK N-Cys (SEQ ID NO 489), Cys at N - 1 position in SK
T6 chain: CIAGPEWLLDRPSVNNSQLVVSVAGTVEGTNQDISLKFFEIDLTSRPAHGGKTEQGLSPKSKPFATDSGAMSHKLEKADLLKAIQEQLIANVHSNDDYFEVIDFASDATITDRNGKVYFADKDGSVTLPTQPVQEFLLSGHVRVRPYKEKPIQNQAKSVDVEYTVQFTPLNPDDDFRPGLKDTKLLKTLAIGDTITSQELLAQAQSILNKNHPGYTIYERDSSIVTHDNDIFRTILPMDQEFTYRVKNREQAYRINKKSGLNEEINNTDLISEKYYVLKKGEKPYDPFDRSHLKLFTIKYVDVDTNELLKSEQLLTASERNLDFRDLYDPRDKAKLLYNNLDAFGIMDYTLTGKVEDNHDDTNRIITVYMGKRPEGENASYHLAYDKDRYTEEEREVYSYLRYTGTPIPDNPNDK

B1: human plasminogen (HPG) (protein)
chain: KVYLSECKTGNGKNYRGTMSKTKNGITCQKWSSTSPHRPRFSPATHPSEGLEENYCRNPDNDPQGPWCYTTDPEKRYDYCDILECEEECMHCSGENYDGKISKTMSGLECQAWDSQSPHAHGYIPSKFPNKNLKKNYCRNPDRELRPWCFTTDPNKRWELCDIPRCTTPPPSSGPTYQCLKGTGENYRGNVAVTVSGHTCQHWSAQTPHTHNRTPENFPCKNLDENYCRNPDGKRAPWCHTTNSQVRWEYCKIPSCDSSPVSTEQLAPTAPPELTPVVQDCYHGDGQSYRGTSSTTTTGKKCQSWSSMTPHRHQKTPENYPNAGLTMNYCRNPDADKGPWCFTTDPSVRWEYCNLKKCSGTEASVVAPPPVVLLPDVETPSEEDCMFGNGKGYRGKRATTVTGTPCQDWAAQEPHRHSIFTPETNPRAGLEKNYCRNPDGDVGGPWCYTTNPRKLYDYCDVPQCAAPSFDCGKPQVEPKKCPGRVVGGCVAHPHSWPWQVSLRTRFGMHFCGGTLISPEWVLTAAHCLEKSPRPSSYKVILGAHQEVNLEPHVQEIEVSRLFLEPTRKDIALLKLSSPAVITDKVIPACLPSPNYVVADRTECFITGWGETQGTFGAGLLKEAQLPVIENKVCNRYEFLNGRVQSTELCAGHLAGGTDSCQGDSGGPLVCFEKDKYILQGVTSWGLGCARPNKPGVYVRVSRFVTWIEGVMRNN
Km [1]: 0.25 µM and 0.6 µM | Km [2]: 0.6 µM | Km [3]: 0.4 µM | Km [4]: 0.4 µM | Km [5]: 0.48 µM | Km [6]: 0.4 µM | Km [7]: 0.4 µM

Source: patent US20120213763A1 (COUNCIL OF SCIENTIFIC AND INDUSTRIAL RESEARCH, published 2012)
